Results taken from patent publication US20210244762A1 (AUTOLUS, published 2021).

Molecular target: T1, Recombinant TGFbRII-Fc protein (R&D systems) (human, UniProt P37173 23-159)
T1 construct: Bought reagent; also called TGFβRII-Fc; TGFβRII-human Fc; not shown: Fc part; human Fc by the names 'TGFβRII-human Fc' / 'TGFbRII-hFc' and the anti-human capture kit; isotype and limits not
Experiment: SPR (Biacore 8K), TGFbRII-Fc captured by anti-human capture kit on CM5, VHH as analyte, 1:1 Langmuir fit, 25 °C
Excerpt: The binding kinetics of these four dAbs for TGFβRII was then investigated using Biacore affinity analysis and the results are shown in Table 3 below.
Recombinant TGFbRII-Fc protein (R&D systems) was immobilised on individual flow cells on a Series S CM5 sensor chip (GE Healthcare) previously functionalised with anti-human capture kit, to a density of 150-200 RU using a Biacore 8K instrument. HBS-P⁺ buffer was used as running buffer is all experimental conditions. Recombinant purified VHH antibodies at known concentrations were used as the ‘analyte’ and injected over the respective flow cells with 150 s contact time and 600s dissociation at […] of flow rate with a constant temperature of 25° C. In each experiment, flow cell 1 was unmodified and used for reference subtraction. A ‘0 concentration’ sensorgram of buffer alone was used as a double reference subtraction to factor for drift. Data were fit to a 1:1 Langmuir binding model using local Rmax.

T1 sequence (P37173 23-159 limits assumed): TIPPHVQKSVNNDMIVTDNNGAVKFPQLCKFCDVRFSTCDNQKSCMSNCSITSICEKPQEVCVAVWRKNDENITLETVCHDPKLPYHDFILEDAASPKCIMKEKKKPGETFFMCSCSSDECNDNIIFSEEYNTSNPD

Kd: 67.2 nM
koff: 0.119 s⁻¹
kon: 1.77e+06 M⁻¹ s⁻¹
B1: anti-TGFβRII single domain antibody (dAb) clone H3 (VHH)
VHH: QVQLQQSGGGLVQAGGSLRLACAASGRSFSIYGITWFRQAPGKEREFVAAITGSGLTTNYADSVKGRFTISRDNAKNMVYLQLNSLKPDDTAVYYCAATRAYSGYYGENPTRYAYWGQGTQVTVS
notes: H3 is the one clone not 'related' to the other three; also called dAb H3; anti-TGFbRII VHH H3
